Read-outs that look alike come from different tables or passages of the source. Where a SMILES comes first, the peptide text is derived from it. Where no end group is shown, it is not given here. Side-chain parts run from the residue outwards. [ ]: non-standard residue; d: D form. The star is where a group is joined. DOTA = O=C(O)CN1CCN(CC(=O)O)CCN(CC(=O)*)CCN(CC(=O)O)CC1; hArg = N=C(N)NCCCC[C@H](N)C(=O)O; Dab = NCC[C@H](N)C(=O)O; Ahx = NCCCCCC(=O)O

These results are taken from publication PMC8779334, “Synthesis, Physicochemical and Biological Study of Gallium-68- and Lutetium-177-Labeled VEGF-A165/NRP-1 Complex Inhibitors Based on Peptide A7R and Branched Peptidomimetic” (Pharmaceutics, 2022).

The format of data set [1] is physicochemical. The note with it: pH 7.4. The protocol:
The lipophilicity (L) of tested radiocompounds, defined as the decimal logarithm (logP) of the partition coefficient (P) of the compound between the two immiscible phases, was determined in the system PBS solution (aqueous phase, polar phase, pH 7.4) and n-octanol (organic, non-polar phase) according to the following formula: L=logP=logAo/Aw where Ao —organic phase radioactivity; Aw —aqueous phase radioactivity. Radioactivity of both phases, resulting from the concentration of the tested radiocompound in each of them, was determined by measuring the gamma radiation with a Wizard counter in three independent experiments. Before starting the research, both liquid phases were saturated with each other to avoid errors resulting from the mutual solubility of both liquids. The partition coefficient (P) result is shown as the mean ± SD. After the end of the experiment, we performed RP-HPLC analysis of the aqueous phase to confirm the tested radioconjugate remained intact during the experiment.

Data set [2] is classed as in vitro ADME. To be noted: human, serum. The protocol: Stability studies of the ^68Ga-1, ^177Lu-1, ^68Ga-2, and ^177Lu-2 radioconjugates in human serum (HS) were performed according to the following procedure: into a vial containing 900 µL of HS we added 100 µL of the tested radioconjugate and incubated the mixture at 37 °C. After the specified incubation times (10 min–4.5 h for ^68Ga-radiocompounds and 10 min–4 days for ^177Lu-radiocompounds), we withdrew the aliquots, mixed with ethanol to precipitate the proteins, and centrifuged (14,000 rpm, 5–15 min) to separate the protein compounds from the supernatant. The gamma radioactivity of the obtained precipitate and supernatant was then measured using a Wizard detector. Using the formula below, the amount of radioconjugate remaining in the supernatant (and also bound by serum protein components) was calculated. ∑ liquid phase radioactivity/∑ liquid phase radioactivity+∑ percipitate radioactivity ×100% We also analyzed the supernatant at each time by RP-HPLC in System 3 with gamma detection for ^68Ga-1 and ^177Lu-1 and System 4 with gamma detection for ^68Ga-2 and ^177Lu-2 to check whether the studied radiocompound remained unchanged during the experiment.

The test system of another data set is VEGF-A165/NRP-1 complex. The note with it: read-out: IC50 (VEGF-A165 binding with NRP-1); cited from earlier work.
For data set [3] the following is noted: cited from earlier work.

For `CC(C)C[C@H](NC(=O)[C@H](Cc1c[nH]c2ccccc12)NC(=O)[C@@H](NC(=O)[C@H](C)NC(=O)CCCCCNC(=O)CN1CCN(CC(=O)O)CCN(CC(=O)O)CCN(CC(=O)O)CC1)[C@@H](C)O)C(=O)N1CCC[C@H]1C(=O)N1CCC[C@H]1C(=O)N[C@@H](CCCNC(=N)N)C(=O)O` [^68Ga-1, [^68Ga]Ga-DOTA-Ahx-A7R, metal not drawn] ({DOTA-Ahx}-ATWLPPR-OH), the “logP ± SD” value in data set [1] is on record as −3.92 ± 0.03. Still for that read-out and setting: the value for `N=C(N)NCCCC[C@H](N)C(=O)NCCCC[C@H](N)C(=O)N[C@@H](CCNC(=O)CCCCCNC(=O)CN1CCN(CC(=O)O)CCN(CC(=O)O)CCN(CC(=O)O)CC1)C(=O)N1CCC[C@H]1C(=O)N[C@@H](CCCNC(=N)N)C(=O)O` [^68Ga-2, [^68Ga]Lys(hArg)-Dab(Ahx-DOTA-Ga)-Pro-Arg, metal not drawn] (H-K(hArg)[Dab]([Ahx-DOTA])PR-OH) was −4.57 ± 0.05. In the case of `CC(C)C[C@H](NC(=O)[C@H](Cc1c[nH]c2ccccc12)NC(=O)[C@@H](NC(=O)[C@H](C)NC(=O)CCCCCNC(=O)CN1CCN(CC(=O)O)CCN(CC(=O)O)CCN(CC(=O)O)CC1)[C@@H](C)O)C(=O)N1CCC[C@H]1C(=O)N1CCC[C@H]1C(=O)N[C@@H](CCCNC(=N)N)C(=O)O` [^177Lu-1, [^177Lu]Lu-DOTA-Ahx-A7R, metal not drawn] ({DOTA-Ahx}-ATWLPPR-OH), in data set [1], the “logP ± SD” value was −3.40 ± 0.14. In addition, the “radioconjugate remaining in HS sample (in words)” value in data set [2] (96 h) is listed as “still visible”.

Regarding `N=C(N)NCCCC[C@H](N)C(=O)NCCCC[C@H](N)C(=O)N[C@@H](CCNC(=O)CCCCCNC(=O)CN1CCN(CC(=O)O)CCN(CC(=O)O)CCN(CC(=O)O)CC1)C(=O)N1CCC[C@H]1C(=O)N[C@@H](CCCNC(=N)N)C(=O)O` [^177Lu-2, [^177Lu]Lys(hArg)-Dab(Ahx-DOTA-Lu)-Pro-Arg, metal not drawn] (H-K(hArg)[Dab]([Ahx-DOTA])PR-OH), the “logP ± SD” value in data set [1] was −3.75 ± 0.08. In data set [2] (24 h), the “radioconjugate remaining in HS sample (in words)” value is reported as “only traces of radioconjugate were present”. Consider ATWLPPR [A7R], for which, in the data set with VEGF-A165/NRP-1 complex, the IC50 (in general, the point on the concentration scale where inhibition reaches its midpoint) is 5.9 µM. Regarding Lys(hArg)-Dab-Pro-Arg, in the data set on VEGF-A165/NRP-1 complex, the half-maximal inhibitory concentration (IC50) was 0.2 µM. Besides, in data set [3], the “stability half-life in human serum” value was roughly 48 h. Moreover, the half-life (commonly the time needed for the level to fall by half in the phase considered) in data set [3] (peptidomimetic concentration 0.9 µmol/mL, UV/VIS detection) is recorded as 41 h.
